Experimental findings from the supplement of paper PMC7877785 are described below.

± gives the uncertainty stated by the source.

The nature of the series: self-splicing fitness, log relative to wild type (ln ratio); higher = more splicing; Tetrahymena group I intron in knt gene, E. coli kanamycin selection, DiMSum; sequences stand for … in CUCUCU…GGAGGGAAAAGUUAUCAGGCAUGCACCUGGUAGCUAGUCUUUAAACCAAUAGAUUGCAUCGGUUUAAAAGGCAAGACCGUCAAAUUGCGGGAAAGGGGUCAACAGCCGUUCAGUACCAAGUCUCAGGGGAAACUUUGAGAUGGCCUUGCAAAGGGUAUGGUAAUAAGCUGACGGACAUGGUCCUAACCACGCAGCCAAGUCCUAAGUCAACAGAUCUUCUGUUGAUAUGGAUGCAGUUCACAGACUAAAUGUCGGUCGGGGAAGAUGUAUUCUUCUCAUAAGAUAUAGUCGGACCUCUCCUUAAUGGGAGCUAGCGGAUGAAGUGAUGCAACACUGGAGCCGCUGGGAACUAAUUUGUAUGCGAAAGUAUAUUGAUUAGUUUUGGAGUACUCGUGGUCG
Put shortly: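 Colonies from six replicate transformations of E. coli BL21(DE3) were pooled and amplicon-sequenced on an Illumina HiSeq 2500. The library placed an intron with all eight P1ex-region nucleotides randomised inside the knt kanamycin-resistance gene on pET-22b(+), and cells grew overnight at 37°C or 30°C on LB agar with or without 25 μg/mL kanamycin (plus 100 μg/mL carbenicillin, 50 μM IPTG, 0.2% rhamnose). Fitness is the DiMSum error-weighted combination of wild-type-normalised replicate fold changes, kanamycin versus none.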

In the case of CCGCAGCAAUAUUACGUCUC, the “self-splicing fitness (ln)” value (30 °C) is -3.13 ± 0.24 and the “self-splicing fitness (ln)” value (37 °C) is -2.56 ± 0.26. Take CUAAAGCAAUAUUACGUUAC: the “self-splicing fitness (ln)” value is -3.78 ± 0.26 (30 °C) and -2.06 ± 0.31 (37 °C).

As for CCGCAGCAAUAUUACGGCGU, the “self-splicing fitness (ln)” value is -2.44 ± 0.081 (30 °C) and -1.27 ± 0.096 (37 °C). As for UUUAAGCAAUAUUACGGGCU, the “self-splicing fitness (ln)” value was -2.91 ± 0.3 (30 °C) and -2.18 ± 0.3 (37 °C).

For GAACAGCAAUAUUACGCCGC, for the setting “37 °C”, the “self-splicing fitness (ln)” value was -2.35 ± 0.34. In the case of CUUGAGCAAUAUUACGCGGG, the “self-splicing fitness (ln)” value reads like this: (30 °C) -3.92 ± 0.3; (37 °C) -0.302 ± 0.18. For the sequence UUGUAGCAAUAUUACGCCUC, the “self-splicing fitness (ln)” value (30 °C) is -2.07 ± 0.48.

Regarding ACAAAGCAAUAUUACGUGUA, the “self-splicing fitness (ln)” value was -2.6 ± 0.1 (30 °C) and -1.56 ± 0.084 (37 °C). The corresponding values for AAAGAGCAAUAUUACGUCUC are -3.18 ± 0.29 and -1.47 ± 0.18. The corresponding values for UUAUAGCAAUAUUACGCUGG are -1.35 ± 0.14 and -0.828 ± 0.12.

As for CGCCAGCAAUAUUACGGGAG, the “self-splicing fitness (ln)” value reads like this: (30 °C) -1.92 ± 0.072; (37 °C) -1.38 ± 0.094. The corresponding values for GCAAAGCAAUAUUACGAGUU are -2.47 ± 0.11 and -0.891 ± 0.093. CUAGAGCAAUAUUACGCAGU: the “self-splicing fitness (ln)” value reads like this: (30 °C) -2.58 ± 0.12; (37 °C) -3.17 ± 0.2. GCGUAGCAAUAUUACGUCAC: the “self-splicing fitness (ln)” value (37 °C) was -0.245 ± 0.37. For GUGAAGCAAUAUUACGUACC, the “self-splicing fitness (ln)” value (30 °C) is -1.07 ± 0.2.

Consider GUCCAGCAAUAUUACGGAGA, for which the “self-splicing fitness (ln)” value is -0.714 ± 0.096 (30 °C) and 0.585 ± 0.11 (37 °C). The corresponding values for AGUGAGCAAUAUUACGGCGA are -1.18 ± 0.14 and -2 ± 0.21.

For CUGCAGCAAUAUUACGUUCU, the “self-splicing fitness (ln)” value is -2.88 ± 0.21 (30 °C) and -1.88 ± 0.2 (37 °C). The corresponding values for UAUGAGCAAUAUUACGCGGA are -2.39 ± 0.25 and -1.69 ± 0.24. The corresponding values for UGCCAGCAAUAUUACGUUAG are -2.26 ± 0.12 and -0.975 ± 0.13. Take AGUGAGCAAUAUUACGUUUC: the “self-splicing fitness (ln)” value was -3.41 ± 0.23 (30 °C) and -3.56 ± 0.32 (37 °C). The corresponding values for AUCUAGCAAUAUUACGCGUU are -1.76 ± 0.096 and -0.994 ± 0.1. The corresponding values for AAAGAGCAAUAUUACGGAAU are -2.79 ± 0.19 and -2.57 ± 0.27.

Take CAAAAGCAAUAUUACGAGAU: the “self-splicing fitness (ln)” value was -3.7 ± 0.2 (30 °C) and -2.21 ± 0.16 (37 °C).

As to AGGCAGCAAUAUUACGCGUC, the “self-splicing fitness (ln)” value reads like this: (30 °C) -3.34 ± 0.3; (37 °C) -2.54 ± 0.3.

With GGCUAGCAAUAUUACGCCGG, the “self-splicing fitness (ln)” value was -2.34 ± 0.21 (30 °C) and -2.27 ± 0.35 (37 °C). The corresponding values for UGAUAGCAAUAUUACGAUAA are -2.12 ± 0.16 and -0.841 ± 0.17. The corresponding values for CUAUAGCAAUAUUACGCUCU are -3.4 ± 0.29 and -2.3 ± 0.34. Consider UGUUAGCAAUAUUACGAGGG, for which the “self-splicing fitness (ln)” value is -3.43 ± 0.26 (30 °C) and -1.84 ± 0.23 (37 °C). The corresponding values for UGGGAGCAAUAUUACGAAAC are -1.85 ± 0.22 and -1.79 ± 0.49. The corresponding values for GGUUAGCAAUAUUACGCUUU are -2.01 ± 0.13 and 0.0831 ± 0.14. Regarding ACAGAGCAAUAUUACGUUGC, where the note is “30 °C”, the “self-splicing fitness (ln)” value was -2.78 ± 0.18.

With GUGGAGCAAUAUUACGCUCA, the “self-splicing fitness (ln)” value is, setting by setting: (30 °C) -1.19 ± 0.26; (37 °C) -1.1 ± 0.26. The corresponding values for UAUGAGCAAUAUUACGCGUG are -1.88 ± 0.12 and -1.04 ± 0.11.

Consider CCUAAGCAAUAUUACGUAAG, for which the “self-splicing fitness (ln)” value reads like this: (30 °C) -0.318 ± 0.064; (37 °C) -0.35 ± 0.087. The corresponding values for AGAUAGCAAUAUUACGGUGA are -1.9 ± 0.2 and -0.858 ± 0.17. The corresponding values for UCCUAGCAAUAUUACGCCAU are -2.5 ± 0.3 and -0.725 ± 0.35. The corresponding values for CCUGAGCAAUAUUACGUUCA are -3.2 ± 0.43 and -2.59 ± 0.32. As for CUACAGCAAUAUUACGCUUU, the “self-splicing fitness (ln)” value runs as follows: (30 °C) -3.79 ± 0.25; (37 °C) -2.38 ± 0.16. In the case of GCGAAGCAAUAUUACGAGUC, the “self-splicing fitness (ln)” value was -2.93 ± 0.13 (30 °C) and -2.33 ± 0.21 (37 °C). The corresponding values for UCCUAGCAAUAUUACGGGAA are -1.84 ± 0.21 and -1.76 ± 0.14. On to AUCGAGCAAUAUUACGCCCC, for which the “self-splicing fitness (ln)” value (30 °C) is -2.24 ± 0.44. Consider ACUGAGCAAUAUUACGUUAG, for which the “self-splicing fitness (ln)” value is -3.64 ± 0.2 (30 °C) and -0.75 ± 0.19 (37 °C). As to UCCAAGCAAUAUUACGACCA, the “self-splicing fitness (ln)” value (30 °C) is -1.63 ± 0.16 and the “self-splicing fitness (ln)” value (37 °C) was -0.935 ± 0.17.

As for GACAAGCAAUAUUACGUUUA, the “self-splicing fitness (ln)” value is -1.66 ± 0.084 (30 °C) and -1.58 ± 0.089 (37 °C). The corresponding values for CCUUAGCAAUAUUACGAGGC are -4.12 ± 0.29 and -1.6 ± 0.27. The corresponding values for UAGGAGCAAUAUUACGCUUU are -2.54 ± 0.32 and -1.66 ± 0.29. For GUGUAGCAAUAUUACGCGCU, the “self-splicing fitness (ln)” value (37 °C) is -1.27 ± 0.18. In the case of GGCCAGCAAUAUUACGUUGG, the “self-splicing fitness (ln)” value is, setting by setting: (30 °C) -3.91 ± 0.25; (37 °C) -3.17 ± 0.25. The corresponding values for UACUAGCAAUAUUACGUGGC are -2.44 ± 0.18 and -2.91 ± 0.28. The corresponding values for ACUUAGCAAUAUUACGUUUG are -3.01 ± 0.12 and -2.09 ± 0.16. Take AGUGAGCAAUAUUACGGUAG: the “self-splicing fitness (ln)” value (30 °C) is -3.02 ± 0.4. Turning to GCCUAGCAAUAUUACGCCAC, the “self-splicing fitness (ln)” value is, setting by setting: (30 °C) -2.82 ± 0.26; (37 °C) -2.2 ± 0.23. The corresponding values for CCCGAGCAAUAUUACGUCGG are -3.02 ± 0.25 and -2.41 ± 0.32.

Regarding AUACAGCAAUAUUACGAGGG, the “self-splicing fitness (ln)” value reads like this: (30 °C) -3.68 ± 0.2; (37 °C) -2.21 ± 0.19.

With GUUUAGCAAUAUUACGAAGG, the “self-splicing fitness (ln)” value is -2.93 ± 0.38 (30 °C) and -1.37 ± 0.26 (37 °C). The corresponding values for UUAUAGCAAUAUUACGACUU are -1.85 ± 0.28 and -0.00223 ± 0.29. As to AGCUAGCAAUAUUACGUCCU, the “self-splicing fitness (ln)” value (30 °C) is -0.19 ± 0.083 and the “self-splicing fitness (ln)” value (37 °C) came out at 0.188 ± 0.11. The corresponding values for CUACAGCAAUAUUACGCCGG are -2.19 ± 0.13 and -1.26 ± 0.13.

For the sequence CCUUAGCAAUAUUACGUUGC, the “self-splicing fitness (ln)” value is -3.68 ± 0.38 (30 °C) and -3.31 ± 0.3 (37 °C).

Consider GCGUAGCAAUAUUACGUAUG, for which the “self-splicing fitness (ln)” value by setting is: (30 °C) -2.96 ± 0.3; (37 °C) -2 ± 0.24. For UAUCAGCAAUAUUACGAAUU, the “self-splicing fitness (ln)” value is, setting by setting: (30 °C) -0.95 ± 0.076; (37 °C) 0.113 ± 0.09. For the sequence ACUUAGCAAUAUUACGAAUU, the “self-splicing fitness (ln)” value (30 °C) was -2.29 ± 0.1 and the “self-splicing fitness (ln)” value (37 °C) is -0.888 ± 0.14. The corresponding values for UGGAAGCAAUAUUACGGCUC are -1.89 ± 0.49 and -1.42 ± 0.36. The corresponding values for ACCGAGCAAUAUUACGUCAU are -5.01 ± 0.34 and -2.68 ± 0.14.

UCACAGCAAUAUUACGAUAU: the “self-splicing fitness (ln)” value by setting is: (30 °C) -2.96 ± 0.22; (37 °C) -2.67 ± 0.19.

In the case of UCAGAGCAAUAUUACGUGUU, the “self-splicing fitness (ln)” value is, setting by setting: (30 °C) -4.84 ± 0.27; (37 °C) -2.27 ± 0.17. As for AGUGAGCAAUAUUACGCCUC, where the note is “30 °C”, the “self-splicing fitness (ln)” value is -1.98 ± 0.24. Consider UCCUAGCAAUAUUACGCACA, for which the “self-splicing fitness (ln)” value (30 °C) is -2.29 ± 0.22 and the “self-splicing fitness (ln)” value (37 °C) is -1.45 ± 0.21. In the case of CCCAAGCAAUAUUACGGUCU, the “self-splicing fitness (ln)” value (30 °C) was -4.2 ± 0.2 and the “self-splicing fitness (ln)” value (37 °C) was -2.64 ± 0.14. The corresponding values for CUACAGCAAUAUUACGAUUU are -4.36 ± 0.22 and -1.95 ± 0.14. The corresponding values for GGCAAGCAAUAUUACGCCGA are -2.14 ± 0.32 and -0.337 ± 0.25. The corresponding values for ACCAAGCAAUAUUACGGGGC are -3.74 ± 0.18 and -2.1 ± 0.14. As for GCGCAGCAAUAUUACGUAUC, the “self-splicing fitness (ln)” value (30 °C) is -0.438 ± 0.068 and the “self-splicing fitness (ln)” value (37 °C) is -0.609 ± 0.085. Regarding GUCGAGCAAUAUUACGGUCA, the “self-splicing fitness (ln)” value by setting is: (30 °C) -1.37 ± 0.26; (37 °C) -0.499 ± 0.24.

On to CCGGAGCAAUAUUACGGCUG, for which the “self-splicing fitness (ln)” value runs as follows: (30 °C) -1.14 ± 0.15; (37 °C) -0.43 ± 0.18. The corresponding values for UGAGAGCAAUAUUACGGUGG are -3.4 ± 0.17 and -2.82 ± 0.2. The corresponding values for UCAUAGCAAUAUUACGGUCG are -1.14 ± 0.083 and -0.0517 ± 0.1.
